Data reported in patent publication US20140087995A1 (published 2014).
Numbered stars: 1 amine (or outer) side, 2 acyl side, 3 side chain; on linkers, the order of the positions; unused ones are H or OH. Bridge positions count the residues as written; N and C are the ends. Side chains are listed from the residue outwards. Ends that are not written are not given here. * marks the point of attachment. C20 diacid = O=C(O)CCCCCCCCCCCCCCCCCCC(=O)*; γGlu = O=C(O)[C@H](CCC(=O)[*:2])N[*:1]

T1: rat calcitonin receptor (rat, UniProt P32214 25-516)
T1 construct: whole, on cells; Membranes of transiently transfected BHK tk'ts 13 cells; also called rCTR; rat calcitonin (a) receptor
T1 sequence (looked up): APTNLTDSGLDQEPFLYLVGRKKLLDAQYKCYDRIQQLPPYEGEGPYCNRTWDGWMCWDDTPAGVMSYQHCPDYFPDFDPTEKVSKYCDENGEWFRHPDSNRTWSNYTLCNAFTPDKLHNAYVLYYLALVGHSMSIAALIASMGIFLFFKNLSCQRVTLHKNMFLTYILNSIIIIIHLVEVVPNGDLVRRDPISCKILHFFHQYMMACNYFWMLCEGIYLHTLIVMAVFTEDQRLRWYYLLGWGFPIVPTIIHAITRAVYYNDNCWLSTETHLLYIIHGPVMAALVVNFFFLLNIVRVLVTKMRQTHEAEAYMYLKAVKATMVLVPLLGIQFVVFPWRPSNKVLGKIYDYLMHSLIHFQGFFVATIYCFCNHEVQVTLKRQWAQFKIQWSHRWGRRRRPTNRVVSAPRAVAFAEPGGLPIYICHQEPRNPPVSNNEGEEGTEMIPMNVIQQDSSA

T2: human calcitonin receptor (human, UniProt P30988 25-474)
T2 construct: whole, on cells; Membranes of stably transfected cells; also called hCTR; hCT
T2 sequence (looked up): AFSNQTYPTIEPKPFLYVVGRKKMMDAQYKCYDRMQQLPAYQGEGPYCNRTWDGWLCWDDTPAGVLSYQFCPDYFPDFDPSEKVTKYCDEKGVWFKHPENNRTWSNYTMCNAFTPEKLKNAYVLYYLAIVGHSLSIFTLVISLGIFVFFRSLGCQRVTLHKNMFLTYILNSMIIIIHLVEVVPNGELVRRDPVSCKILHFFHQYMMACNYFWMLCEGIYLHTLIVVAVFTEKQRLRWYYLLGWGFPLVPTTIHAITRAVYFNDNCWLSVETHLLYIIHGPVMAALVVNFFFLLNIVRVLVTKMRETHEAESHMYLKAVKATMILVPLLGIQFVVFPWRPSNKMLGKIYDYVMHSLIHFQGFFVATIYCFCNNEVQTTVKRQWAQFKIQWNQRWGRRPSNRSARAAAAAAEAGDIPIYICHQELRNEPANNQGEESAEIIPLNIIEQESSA

T3: rat amylin receptor (rat calcitonin receptor + rat RAMP 3) (rat, UniProt P32214 25-516; Q9JJ73 23-147)
T3 construct: whole, on cells; Membranes of transiently transfected BHK tk'ts 13 cells; also called rAmylin-R; rat amylin 3(a) receptor
T3 sequence (looked up) 1: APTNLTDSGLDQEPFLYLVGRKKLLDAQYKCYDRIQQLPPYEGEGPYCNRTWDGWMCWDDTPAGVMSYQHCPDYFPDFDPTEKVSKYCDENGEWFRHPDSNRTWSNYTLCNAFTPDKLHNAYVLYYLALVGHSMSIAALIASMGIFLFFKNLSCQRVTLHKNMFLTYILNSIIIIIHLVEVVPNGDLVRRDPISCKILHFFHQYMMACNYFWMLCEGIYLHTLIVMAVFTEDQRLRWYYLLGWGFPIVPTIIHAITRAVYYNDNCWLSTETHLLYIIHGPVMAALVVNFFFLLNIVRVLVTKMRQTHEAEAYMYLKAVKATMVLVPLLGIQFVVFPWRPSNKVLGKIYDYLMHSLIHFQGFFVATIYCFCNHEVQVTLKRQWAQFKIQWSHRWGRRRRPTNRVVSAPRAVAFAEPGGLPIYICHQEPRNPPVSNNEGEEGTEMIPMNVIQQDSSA
T3 sequence (looked up) 2: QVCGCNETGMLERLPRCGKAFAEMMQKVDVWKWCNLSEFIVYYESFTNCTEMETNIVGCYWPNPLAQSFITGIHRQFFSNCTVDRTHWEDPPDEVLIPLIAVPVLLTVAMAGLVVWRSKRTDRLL


What was measured:
[1] = target: T1, rat calcitonin receptor; test: ratio of IC50 on rat calcitonin receptor to IC50 on rat amylin receptor (reference m40)
[2] = target: T2, human calcitonin receptor; test: ratio of IC50 on human calcitonin receptor to IC50 on human amylin receptor (reference m42), SPA competition
In short: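 IC₅₀ values were derived by one-site competition analysis of SPA counts. Cell membranes (35 ng/μL) with SPA beads were incubated with test compounds for 120 min at 25° C in Hepes buffer, pH 7.4, containing CaCl2, MgCl₂, OA and Tween20.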

[3] = target: T1, rat calcitonin receptor; test: SPA competition with 125I-calcitonin on membranes of BHK tk'ts 13 cells with rat calcitonin receptor (Assay VIII)
[4] = target: T3, rat amylin receptor (rat calcitonin …); test: SPA competition with 125I-rat amylin on membranes of BHK tk'ts 13 cells with rat calcitonin receptor + rat RAMP3 (Assay VI)

Binder | Ratio rCT/rAmylin binding [1] | Ratio hCT/hAmylin binding [2] | IC50 [3] [µM] | IC50 [4] [µM]
K([γGlu-C20 diacid])CNTATCATQRLAEFLRHSSPNFGAIPSSTNVGRETY-NH2 (disulfide 2-7; N-terminus assumed; SMILES CC[C@H](C)[C@H](NC(=O)[C@H](C)NC(=O)CNC(=O)[C@H](Cc1ccccc1)NC(=O)[C@H](CC(N)=O)NC(=O)[C@@H]1CCCN1C(=O)[C@H](CO)NC(=O)[C@H](CO)NC(=O)[C@H](Cc1c[nH]cn1)NC(=O)[C@H](CCCNC(=N)N)NC(=O)[C@H](CC(C)C)NC(=O)[C@H](Cc1ccccc1)NC(=O)[C@H](CCC(=O)O)NC(=O)[C@H](C)NC(=O)[C@H](CC(C)C)NC(=O)[C@H](CCCNC(=N)N)NC(=O)[C@H](CCC(N)=O)NC(=O)[C@@H](NC(=O)[C@H](C)NC(=O)[C@@H]1CSSC[C@H](NC(=O)[C@@H](N)CCCCNC(=O)CC[C@H](NC(=O)CCCCCCCCCCCCCCCCCCC(=O)O)C(=O)O)C(=O)N[C@@H](CC(N)=O)C(=O)N[C@@H]([C@@H](C)O)C(=O)N[C@@H](C)C(=O)N[C@@H]([C@@H](C)O)C(=O)N1)[C@@H](C)O)C(=O)N1CCC[C@H]1C(=O)N[C@@H](CO)C(=O)N[C@@H](CO)C(=O)N[C@H](C(=O)N[C@@H](CC(N)=O)C(=O)N[C@H](C(=O)NCC(=O)N[C@@H](CCCNC(=N)N)C(=O)N[C@@H](CCC(=O)O)C(=O)N[C@H](C(=O)N[C@@H](Cc1ccc(O)cc1)C(N)=O)[C@@H](C)O)C(C)C)[C@@H](C)O, Synthetic acylated analogue of human amylin) | 81.1 | 28.5 | 0.0861 | 0.00106
K([γGlu-C20 diacid])CNTATCATQRLAEFLRHSSPNFGAIPSSTNVGHETY-NH2 (disulfide 2-7; N-terminus assumed; SMILES CC[C@H](C)[C@H](NC(=O)[C@H](C)NC(=O)CNC(=O)[C@H](Cc1ccccc1)NC(=O)[C@H](CC(N)=O)NC(=O)[C@@H]1CCCN1C(=O)[C@H](CO)NC(=O)[C@H](CO)NC(=O)[C@H](Cc1c[nH]cn1)NC(=O)[C@H](CCCNC(=N)N)NC(=O)[C@H](CC(C)C)NC(=O)[C@H](Cc1ccccc1)NC(=O)[C@H](CCC(=O)O)NC(=O)[C@H](C)NC(=O)[C@H](CC(C)C)NC(=O)[C@H](CCCNC(=N)N)NC(=O)[C@H](CCC(N)=O)NC(=O)[C@@H](NC(=O)[C@H](C)NC(=O)[C@@H]1CSSC[C@H](NC(=O)[C@@H](N)CCCCNC(=O)CC[C@H](NC(=O)CCCCCCCCCCCCCCCCCCC(=O)O)C(=O)O)C(=O)N[C@@H](CC(N)=O)C(=O)N[C@@H]([C@@H](C)O)C(=O)N[C@@H](C)C(=O)N[C@@H]([C@@H](C)O)C(=O)N1)[C@@H](C)O)C(=O)N1CCC[C@H]1C(=O)N[C@@H](CO)C(=O)N[C@@H](CO)C(=O)N[C@H](C(=O)N[C@@H](CC(N)=O)C(=O)N[C@H](C(=O)NCC(=O)N[C@@H](Cc1c[nH]cn1)C(=O)N[C@@H](CCC(=O)O)C(=O)N[C@H](C(=O)N[C@@H](Cc1ccc(O)cc1)C(N)=O)[C@@H](C)O)C(C)C)[C@@H](C)O, Synthetic acylated analogue of human amylin; also called compound 107) | 34.6 | 11.1 | 0.0331 | 0.000958
